The series concerns the molecule itself. In words: […], in Tris-HCl buffer (10 mM Tris-HCl pH 8.0, 150 mM NaCl, 1 mM EDTA); […].

B1: MARV nucleoprotein (1–395), wild type (domain or fragment)
chain: MDLHSLLELGTKPTAPHVRNKKVILFDTNHQVSICNQIIDAINSGIDLGDLLEGGLLTLCVEHYYNSDKDKFNTSPVAKYLRDAGYEFDVIKNADATRFLDVSPNEPHYSPLILALKTLESTESQRGRIGLFLSFCSLFLPKLVVGDRASIEKALRQVTVHQEQGIVTYPNHWLTTGHMKVIFGILRSSFILKFVLIHQGVNLVTGHDAYDSIISNSVGQTRFSGLLIVKTVLEFILQKTDSGVTLHPLVRTSKVKNEVASFKQALSNLARHGEYAPFARVLNLSGINNLEHGLYPQLSAIALGVATAHGSTLAGVNVGEQYQQLREAAHDAEVKLQRRHEHQEIQAIAEDDEERKILEQFHLQKTEITHSQTLAVLSQKREKLARLAAEIENNI
With B1, the binding result is “binds”.

Source of the values: article PMC8897395 (Nature Communications, 2022).
